In patent US20150157741A1 (published 2015):
Ends that are not written are not given here.

Biological target: T1, Recombinant Human ErbB2/Fc Chimera (produced by R&D Systems) (human, UniProt P04626 23-652)
T1 construct: Bought reagent; Immobilised by amine coupling on a GLM chip, about 3,000 RU; also called HER2; Fc part of the bought chimera not given
Test: SPR (ProteOn XPR36), ErbB2/Fc amine-coupled on GLM chip, conjugate injected, 1:1 Langmuir fit
Protocol: The bonding property of the PEG including the capture molecule to HER2 serving as a target molecule was evaluated by a surface plasmon resonance method (SPR). In SPR, the measurement was performed using Proteon (registered trademark) XPR36 (produced by Bio-Rad Laboratories). Recombinant Human ErbB2/Fc Chimera (produced by R&D Systems) was dissolved into an acetate buffer (pH 5.0), and was immobilized by amine coupling to a carboxyl group on the GLM sensor chip surface. The amount of immobilization was about 3,000 RU (Resonance Unit). Subsequently, the PEG including the capture molecule was diluted to various concentrations with a phosphate buffer (pH 7.4) containing 0.005% of Tween20 and was injected into a flow cell at a flow rate of 50 microliters/min. As for the measurement times, an injection time (bonding) was 120 seconds and an elapsed time after stopping of injection (dissociation) was 120 seconds. In a bonding kinetic analysis experiment, sensor grams were analyzed using 1:1 Langmuir fitting model. The bonding property to HER2 was ensured with respect to every sample. In particular, strong bonding property was ensured with respect to scFv-PEG40, Af-PEG20, and Af-PEG40.

Kd [nM]	Binder
2600	MARSGLGGKGSC(PEG ME‑200MA) (also: ICG-Sulfo-OSu conjugated, site not given here, Conjugate with PEG 20k and ICG) [pe-PEG20 (PEG ME-200MA modified with ICG and the HER2-binding peptide of Sequence No. 3)]
3100	MARSGLGGKGSC(PEG ME‑400MA) (also: ICG-Sulfo-OSu conjugated, site not given here, Conjugate with PEG 40k and ICG) [pe-PEG40 (PEG ME-400MA modified with ICG and the HER2-binding peptide of Sequence No. 3)]
